Measured values from patent publication US10501734B2, “Compositions and methods of use thereof for making polypeptides with many instances of nonstandard amino acids” (Yale University, priority 2014, dated 2019).

System: ELP(30TAG)-GFP
Test: Intact cell GFP fluorescence, ELP(30TAG)-GFP production
Format: cell-based, E. coli
Settings: plasmid-based OTSs; panel of 14 nsAAs
Procedure: Liquid cell cultures of strains harboring chromosomally integrated OTSs and GFP reporter plasmids were inoculated from frozen stocks and grown to confluence overnight. Cultures were then inoculated at 1:20 dilution in LBmin media supplemented with 30 μg/ml kanamycin. Strains were inoculated by addition of 1:20 confluent cell culture (grown overnight) and allowed to grow at 34° C. to an OD600 of 0.5-0.8 in a shaking plate incubator at 650 r.p.m (˜3 h). AARS expression was then induced by the addition of 0.2% arabinose, GFP expression was induced by the addition of 60 ng/ul anhydrotetracycline, and the appropriate nsAA was added to a concentration of 1 mM. Cells were incubated at 34° C. for an additional 16 h. Liquid cell cultures of strains harboring plasmid-based OTSs and GFP or ELP-GFP reporter plasmids were inoculated from frozen stocks and grown to confluence overnight. Cultures were then inoculated at 1:20 dilution in 2×YT media supplemented with 30 μg/ml kanamycin and 20 μg/ml chloramphenicol. […] Cells were allowed to grow at 34° C. to an OD600 of 0.5-0.8 in a shaking plate incubator at 650 r.p.m (˜3 h), reporter protein expression was then induced by the addition of 60 ng/ul anhydrotetracycline, and cells were incubated at 34° C. for an additional 16 h.
For 384 well plate-based assays, fluorescence and OD600 were directly measured following expression. For 96 well plate-based assays, cells were centrifuged at 4,000 g for 4 min. Supernatant medium was removed and cells were resuspended in PBS. This process was repeated twice with PBS. GFP fluorescence was measured on a Biotek spectrophotometric plate reader using excitation and emission wavelengths of 395 and 509 nm, respectively). Fluorescence signals were normalized by dividing the fluorescence counts by the OD600 reading. The nsAAs used in this study were purchased from Sigma-Aldrich (St. Louis, Mo.), Chemlmpex (Wood Dale, Ill.), and Bachem (Torrance, Calif.). Solutions of nsAAs (50 mM) were made in water or 50 mM NaOH; these stock solutions were diluted 50- or 100-fold (to 1 mM final concentration) into medium used for bacterial growth.

B1: pAcFRS.2.t1: pAcFRS variant L65V, A167D, R257G, SEQ ID NO: 8 (protein)
chain: MDEFEMIKRNTSEIISEEELREVLKKDEKSALIGFEPSGKIHLGHYLQIKKMIDLQNAGFDIIIVLADLHAYLNQKGELDEIRKIGDYNKKVFEAMGLKAKYVYGSEFQLDKDYTLNVYRLALKTTLKRARRSMELIAREDENPKVAEVIYPIMQVNGCHYRGVDVDVGGMEQRKIHMLARELLPKKVVCIHNPVLTGLDGEGKMSSSKGNFIAVDDSPEEIRAKIKKAYCPAGVVEGNPIMEIAKYFLEYPLTIKGPEKFGGDLTVNSYEELESLFKNKELHPMRLKNAVAEELIKILEPIRKRL
nsAA specificity in ELP(30TAG)-GFP production: for pAcF over pAzF decreases when expressed on a multi-copy plasmid

B2: pAzFRS.1.t1: pAcFRS variant D158V, I159M, L162D, A167Y, R257G, SEQ ID NO: 11 (protein)
chain: MDEFEMIKRNTSEIISEEELREVLKKDEKSALIGFEPSGKIHLGHYLQIKKMIDLQNAGFDIIILLADLHAYLNQKGELDEIRKIGDYNKKVFEAMGLKAKYVYGSEFQLDKDYTLNVYRLALKTTLKRARRSMELIAREDENPKVAEVIYPIMQVNVMHYDGVDVYVGGMEQRKIHMLARELLPKKVVCIHNPVLTGLDGEGKMSSSKGNFIAVDDSPEEIRAKIKKAYCPAGVVEGNPIMMEIAKYFLEYPLTIKGPEKFGGDLTVNSYEELESLFKNKELHPMRLKNAVAEELIKILEPIRKRL
nsAA specificity in ELP(30TAG)-GFP production: maintains stringent specificity for pAzF
